Experimental data as given in paper PMC5700061.
Each block holds one substance with its values, some of them ahead of it.

Assays:
[1] = target: Mouse Nerve Growth Factor (NGF) (mouse) (UniProt P01139); assay: SPR; MX96 (IBIS); NGF, proNGF and proBDNF amine-coupled to a P-COOH SensEye sensor, s-sortilin flowed over as analyte; 25 mM MES pH 5.0, 150 mM NaCl, 0.005% Tween 20, 25 °C; equilibrium binding, 1:1 Langmuir model
[2] = target: Furin-resistant mouse proBrain-Derived Neurotrophic Factor (proBDNF) (mouse) (UniProt P21237); assay: as above
[3] = target: Mouse sortilin luminal segment (s-sortilin), wild type, native glycans (mouse); assay: SEC-MALS; Superdex 200 10/300 GL, 10 µl of 10 mg mL^-1 injected, 0.5 ml min^-1; 25 mM MES pH 5.0, 150 mM NaCl
[4] = target: Furin-resistant mouse proBrain-Derived Neurotrophic Factor (proBDNF) (mouse) (UniProt P21237); assay: SPR; equilibrium binding, IBIS MX96; NGF, proNGF and proBDNF amine-coupled, s-sortilin as analyte; 25 mM MES pH 5.0, 150 mM NaCl, 0.005% Tween 20, 25 °C; 1:1 Langmuir model
[5] = target: Furin-resistant mouse proBrain-Derived Neurotrophic Factor (proBDNF) (mouse) (UniProt P21237); assay: SPR; equilibrium binding, IBIS MX96; NGF, proNGF and proBDNF amine-coupled, s-sortilin as analyte; 25 mM HEPES pH 7.4, 150 mM NaCl, 0.005% Tween 20, 25 °C; 1:1 Langmuir model

Mouse Nerve Growth Factor (NGF) (mouse), sequence (P01139 122-241): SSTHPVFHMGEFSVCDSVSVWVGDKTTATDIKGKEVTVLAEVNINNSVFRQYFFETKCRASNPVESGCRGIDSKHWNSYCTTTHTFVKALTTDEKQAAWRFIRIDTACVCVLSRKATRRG

Kd [1]: 0.73 µM | Kd [2]: 2.28 µM
Substance: Mouse s-sortilin A464E, native glycans (domain or fragment)

stoichiometry N [3]: 2
Substance: Mouse sortilin luminal segment (s-sortilin), wild type, native glycans (domain or fragment)

fold reduction of binding at pH 5.0 against pH 7.4 [4]: 4 fold | Kd [5]: 0.4 µM
Substance: s-sortilin A464E (dimerization interface mutant of the mouse sortilin luminal segment) (domain or fragment)
